In US20260125428A1, “SYNTHETIC TRIPLEX PEPTIDE NUCLEIC ACID-BASED INHIBITORS FOR CANCER THERAPY” (University of Connecticut, priority 2022, published 2026):

Key:
[1] = system: HeLa cells; experiment: Cellular uptake in HeLa cells (confocal microscopy); format: cell-based; conditions: 24 h, live cells
Method: (§1) FIGS. 3A-C show cellular uptake of indicated PNAs. (3A) A confocal image of HeLa cells showing cellular and nuclear uptake of γPNA7-NLS containing TAMRA at 2 μM dose and after 24 h of treatment. (3B) A confocal image of U2932 cells showing cellular and nuclear uptake of γPNA7-NLS containing tetramethylrhodamine (TAMRA) at 2 μM dose and after 24 h of treatment. (3C) A histogram representing flow cytometry results for cellular uptake of γPNA7-NLS in U2932 cells after incubation at different doses for 24 h. The scale bar represents 10 μm.
(§2) Cellular uptake: HeLa and U2932 cells were purchased from ATCC (USA), cultured in EMEM and RPMI media, respectively (Invitrogen, USA), supplemented with […] and 1% Penstrep at 37° C. and 5% CO2.
(§3) Confocal Microscopy: HeLa cells were seeded in 8 chamber slides at 50,000 cells/well. U2932 cells were seeded in 24 well plate at 100,000 cells per well. γPNA7-NLS containing TAMRA was added to the cells at 2 μM concentration. After 24 h, cells were washed with PBS to remove uninternalized PNA. The nucleus of live cells was stained using Hoechst dye and were visualized under confocal microscope (Nikon AIR, USA) while cells are maintained in CO2 independent media. […] Cells were then suspended in PBS and analyzed using LSR Fortessa X-20 cell analyzer (BD Biosciences, USA). The data was analyzed using Flowjo software.

[2] = system: U2932 cells; experiment: Cellular uptake in U2932 cells (confocal microscopy, flow cytometry); format: cell-based; conditions: 24 h
Method: as §1, §2, §3

[3] = Biodistribution in U2932 xenograft mice (IVIS, confocal); format: in vivo
Method: FIGS. 5A-D show results of in vivo administration of indicated PNAs. (5A) IVIS® images of xenograft mice bearing tumors at indicated time points after systemic administration of PNA-TAMRA and γPNA7-NLS at 5 mg/kg. (5B) IVIS® imaging of organs harvested from xenograft mice treated with PNA-TAMRA and γPNA7-NLS after 6 h of systemic administration. (5C) Quantification of fluorescence from the organs harvested from PNA-TAMRA and γPNA7-NLS treated xenograft mice. (5D) Confocal microscopy images of tumor and kidney tissue cryo-sections from PNA-TAMRA and γPNA7-NLS treated U2932 xenograft mice. Scale bar, 30 μm.
FIGS. 6A-C show effect of systemic administration of indicated PNAs. (6A) IVIS® images of xenograft mice bearing tumors at indicated time points after systemic administration of γPNA7-NLS and γPNA6 at 5 mg/kg. (6B) IVIS® imaging of organs harvested from control, γPNA7-NLS, and γPNA6 treated mice after 24 hours of systemic administration. (6C) Confocal imaging of tumor, liver, and kidney sections obtained from xenograft mice after 24 h of treatment with γPNA7-NLS and γPNA6. Scale bar is 30 μm.
In vivo studies in xenograft mice model: U2932 derived xenografts were generated by implanting 10 million cells subcutaneously on the lower right flank of the female NSG mice (NOD.Cg-Prkdc^scidIl2rg^tm1Wj1/SzJ, #005557, Jackson Laboratories, USA) of 5-6 weeks. The mice were maintained in the animal care facility at the University of Connecticut following the required Institutional Animal Care and Use Committee guidelines (IACUC). Mice developed palpable tumors after 3-4 weeks of implantation. Tumor dimensions including length (l), breadth (b), and height (h) were measured using a caliper and volume was calculated using the formula for ellipsoid (0.5236×lbh).
Biodistribution studies: Mice with 600-800 mm^3 tumor volume were used for the biodistribution studies. γPNA7-NLS, γPNA6 and regular PNA-TAMRA (23 mer with 3 arginine residues) was injected systemically (retro-orbital) at 5 mg/kg dose. Live imaging of animals was performed using in vivo imaging (IVIS®) spectrum CT and epifluorescence was recorded at excitation/emission wavelength of 549/578 nm at 0, 0.25, 1, 2, 4, 6, 8 and 24 h. Mice were euthanized after 6 h and 24 h. Organs were collected and imaged via IVIS® to determine organ localization of PNA. Further organs were frozen in optimum cutting temperature media (OCT) at −80° C. The tumor, liver, and kidney from treated and untreated mice were sectioned using a cryostat to obtain 10 μm tissue sections. The sections were washed in PBS followed by fixation in 10% neutral buffered formalin. After washing with PBS, sections were permeabilized using 0.2% Triton™-X. The nucleus was stained using mounting media with DAPI (Invitrogen, USA). Sections were allowed to harden overnight, and images were taken using 60× oil lens on a Nikon AIR confocal microscope.

[4] = Biodistribution in transgenic Ep-myc mice (IVIS, confocal); format: in vivo; conditions: 24 hours
Method: FIGS. 8A-D show organ distribution after intravenous and subcutaneous administration of indicated PNAs. (8A) The organ distribution of γPNA-NLS TAMRA after intravenous (IV) and subcutaneous (SC) administration in transgenic mice model of B-cell lymphoma (Ep-myc). γPNA-NLS TAMRA was administered at 5 mg/kg via IV and SC route and organ distribution was determined via IVIS imaging after 24 h. (8B) Confocal microscopy images of different lymph nodes (LNs) after IV and SC injection of γPNA-NLS TAMRA. Blue indicates DAPI and red indicated TAMRA. Scale bar, 30 μm. (8C) C-myc protein levels in brachial lymph nodes of γPNA5-NLS treated mice in comparison to the control (untreated mice). N=4 mice per group. (8D) C-myc protein levels in axillary lymph nodes of γPNA5-NLS treated mice in comparison to the control (untreated mice). N=4 mice per group. Transgenic or Ep-myc mice were treated with γPNA5-NLS at 60 mg/kg dose over 2 days and mice were euthanized on day 3 for analysis.
In vivo studies in transgenic mice model: Ep-myc mice model of Burkitt lymphoma (B6.Cg-Tg(IgHMyc)22Bri/J, #002728, Jackson laboratories) which overexpresses c-myc was also used to test the efficacy of the designed PNA-NLS.
Biodistribution study: γPNA7-NLS containing TAMRA was administered via retro-orbital and subcutaneous route at 5 mg/kg dose in mice with visibly enlarged lymph nodes (cervical, brachial, axillary, and inguinal). Mice were euthanized after 24 h and organs were collected followed by imaging via IVIS®. All major organs and enlarged lymph nodes were collected and frozen in OCT media. The lymph nodes and organs were sectioned at 10 μm thickness using cryostat. The sections were then fixed, permeabilized and nucleus was stained with DAPI. The localization of PNA in lymph nodes was studied via confocal microscopy. Images were taken using 60× oil lens on a AIR confocal microscope.

[5] = organs harvested after 6 h, 5 mg/kg
[6] = xenograft mice, 5 mg/kg systemic, imaged up to 24 h

X3TCCCTCCCTCCGTTCTTTTTTCCCX7 (gamma PNA; NLS peptide; C-terminal TAMRA; gammaPNA to target; misc_feature 1 JJJTJJJT-linker- is covalently linked to the backbone, wherein J is pseudoisocytosine and the linker is 11-Amino-3,6,9-Trioxaundecanoic Acid (DCHA), represented as -OOO-; misc_feature 24 -K-linker-SEQ ID NO: 5-linker-label is covalently linked to the backbone, wherein the linker is 11-Amino-3,6,9-Trioxaundecanoic Acid (DCHA), represented as -OOO-, and the label i) [γPNA7-NLS]
cellular uptake, cytoplasm (confocal) [1]: significant accumulation of γPNA7-NLS in the cytoplasm | nuclear uptake (confocal, TAMRA overlap with Hoechst) [1]: accumulation of γPNA7-NLS within the nucleus | cellular and nuclear uptake (confocal) [2]: accumulation of γPNA7-NLS in both the nucleus and cytoplasm | cellular uptake by flow cytometry ([2]; different doses): dose dependent increase in cellular uptake | accumulation in tumor (confocal microscopy of cryo-sections) ([3]; 6 h, 5 mg/kg): superior accumulation | TAMRA intensity from harvested tumors (IVIS) ([3]; 6 h after systemic administration, 5 mg/kg): significant TAMRA intensity | accumulation in tumors in comparison to γPNA6 (confocal imaging) ([3]; 24 h, 5 mg/kg): significantly higher accumulation in tumors | fluorescence signal of harvested tumors in comparison to γPNA6 (IVIS) ([3]; 24 h after systemic administration, 5 mg/kg): higher fluorescence signal | accumulation in tumor in comparison to liver, kidney, and intestine [3, 5]: higher in comparison to the other organs | accumulation in tumors in comparison to PNA-TAMRA (quantified fluorescence) [3, 5]: more than 6 fold | tumor accumulation until (live IVIS imaging) ([3]; xenograft mice, 5 mg/kg retro-orbital, imaged up to 6 h): 6 h | retained within the tumors until (live IVIS imaging) [3, 6]: 24 h | significant accumulation in tumors starting from (live IVIS imaging) [3, 6]: 0.25 h | accumulation in lymph nodes after IV administration (confocal) ([4]; 5 mg/kg IV): minimal accumulation in the lymph nodes | accumulation in lymph nodes after SC administration (confocal) ([4]; 5 mg/kg SC): accumulated significantly in multiple lymph nodes | accumulation in lymph nodes, SC route in comparison to IV route (IVIS) ([4]; 5 mg/kg): significantly higher accumulation
